Test: yeast display, Sf9 membrane polyspecificity reagent, FACS + sequencing; frameworks hold sequencing errors
Procedure, shortened: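 A synthetic nanobody library was expressed on Saccharomyces cerevisiae BJ5465 by galactose induction for 36–48 hours. The library was stained for 1 hour at 4 °C with 10% biotinylated, detergent-solubilized Sf9 membrane reagent and enriched with streptavidin microbeads before FACS. Low and high (top ~1%) gates were set on anti-HA fluorescence for expression and streptavidin fluorescence for reagent binding, and each polyreactivity label reflects the gate of origin.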

Row | Sequence | polyreactivity (PSR sort gate)
1 | QVQLVESGGGLVQAGGSLRLSCAASGLTFTKYAMGWYRKAPGKEREFVASISWNGGDTYADSVKGRFTISRDNAKNTVYLQMNSLKPEDTAVYYCAARRTQQKVYYWGQGTQVTVSS | high polyreactivity
2 | QVQLVESGGGLVQAGGSLRLSCAASGRTFSANAMGWYRQAPGTEREGVATMTVRGGSTNYADSVKGRFTISRDNAKNTVYLQMNSLKPEDTAVYYCNAYVNSNVRWAYWGFDYCGQGTQVTVSS | high polyreactivity
3 | QVQLVESGGGLVQAGGSLRLSCAASGRIFGAYAMGWYRQAPGKERELVAAITSGGSTYADSVKGRFTISRDNAKNTVYLQMNSLKPEDTAVYYCAADLITRSDSWWTGWIWEYDYWGQGTQVTVSS | low polyreactivity
4 | QVQLVESGGGLVQAGGSLRLSCAASGSIFKRYAMGWYRQAPGKERELVARISRRGGTYYADSVKGRFTISRDNAKNTVYLQMNSLKPEDTAVYYCNANVIFADNNDRDYWGQGTQVTVSS | low polyreactivity
5 | QVPLVESGGGLVQAGGSLRLSCAASGSIFWTYTIGWYRKAPGKERELVAAITSSGSTNFADSVKGRFTISRDNAKKTVYLQMNSLKPADTAVYYCAADPEYRGYQRYDYWGQGTQVTVSS | low polyreactivity
6 | QVQLVESGGGLVKAGGSLRLSCAASGRIFWAYAMGWYRQAPGKERELVAAINSGGRTYYADSVKGRFTISRDNAKNTVYLQMNSLKPEDTAVYYCAAAGVYSSDYWGQGTQVTVSS | low polyreactivity
7 | QVKLVESGGCLVQSGGSLRLSCADYRSIFWNNSMGWYRQATGKEWELGAGISSAGSTNYSDSVKGRFTISRDNAKNTVYLQMNSLKPEDTAVYYCAAEQYRYGIRRRHYDYWGQGTQVTLSS | low polyreactivity
8 | QVQLVESGGGLVQAGGSLRLSCAASGSLFYYYPMGWYRQAPGKERELVATINISDRSTYYADSVKGRFTISRDYAKNTVYLQMNSLKPEDTAVYDCAAYYYFQDYDYWGQGTQVTVSS | low polyreactivity
9 | QVQLVESGGGLVQAGGSLRLSCAASGSIFRFNAMGWNRPAPGKERELVAAITSSGGSTYYADSVKGRFTISRDNAKNTVYLQMNSLKPEDTAVYYCAKRWLYPISYDYWGQGTQVTVSS | high polyreactivity
10 | QVQLVESGGGLVQAGGSLRLSCAASGRIFYRNAMGWYRQAPGKERELVAAIRGSGGRTYYADSVKGRFTISRDNAKNTVYLQMNSLKPEDTAVYYCAAYGYYVEHPRGLSGPYDDDYWGQGTQVTVSS | low polyreactivity
11 | QVQLVESGGGLVQAGGSLRLSCAASGYTSVGNAMGWYRPAPWKERELVAAITYNGGNTYYADSVKGRFRISRDNAKNTVYLQMNSLKPEDTAVSYCATDSQELASSRFDYWGQGTQVTVSS | low polyreactivity
12 | QVQLVESGGGLVQAGGSLRLSCAASGRIFRINAMGWYRQAPGKERELVASITSRAGSTYYADSVKGRFTISRDNAKNTVYLQMTSLKPEDTAVYDCAARSVYTYYRLDYWGQGSQVTVSS | high polyreactivity
13 | QVQLVESGGGLVQAGGSLRLSFAGSGYIFTSYAMRWYRQAPGKERQLVARINYSGGGTSYADSVKGRFTISRDNAKHTVYLQMNSLKQEDTAVYYCAARSYWFRPTKYNYWGQGTQVTVSS | high polyreactivity
14 | QVQLVESGGGLVQAGGSLRLSCAASGRIFYGNTMGWYRQAPGKERELVAAITIGDSTNYADSVKGRFTISRDNAKNTVYLQMNSLKPEDTEVYFCAKRNWWGYYKYDYWGQGTQVTVSS | low polyreactivity
15 | QVQLVESGGGLVQAGGSLRLSCAASGFTFTAYDMGWYRQAPGKERELVAAISGSGGTTYYADSVKGRFTISRDNAKNTVYLQMNSLKPEDTAVYYCAVDVPSPGGYDSWGQGTQVTVSS | low polyreactivity
16 | QVQLVESGGRLVQAGGSLRLSCAASGRTFGPYAIGRYRQAPGKERELVAAITDTGSGTYYADSVKGRFTISRDNAKNTVYLQMNSLKPEDTAVYYCNAVRKYWGQGTQVTVSS | low polyreactivity
17 | QVQLVESGGGLVQAGGSLRLSCAASGLIFKSYAMGWSRQAPGKERELVAVISSSGGSTYYADSVKGRFTISRDNAKNTVYLQMNSLKPEDTAVYYCAARSTYRTGDYWGQGTQVTVSS | high polyreactivity
18 | QVQLVESGGGLVQAGGSLRLSCAASGRIFGRYVMGWYRQAPGKERELVAAITSRDDSTYYADSVKGRFTISRDNAKNTVYLQMTSLKPEDTAVYYCAATWGRGYDYWGQGTQVTVSS | high polyreactivity
19 | QVQLVESGGGLVQAGGSLRLSCAASGSIFYRNVMGWYRQAPGKERELVATISRGGTTNYADSVKGRFTISRDNAKNTVYLQMNSLKPEDTAVYYCALKQSYYFGSYFYGHEYYYWGPGTQVTVSS | low polyreactivity
20 | QVQLVDSGGGLVQAGGSLRLSCAASGRTFLFNSMGWYRQATGKQRELVAGITWSSGSTYYADSVKGRITISRDNAKNTVYLQMNSLKPEDTAVYYCAAYHFHDNDYWGQGTQVTVSS | low polyreactivity
21 | QVQLVESGGGLVQAGGSLRLSCAASGSTIYPYAMGWYRQAPGKERELVAAISSGGRTYYADSEKGRFTISRDKAKNTVYLQMNSLKPEDPAVYYCAARVTKKYRRTYDYWGQGTQVTVSS | high polyreactivity
22 | QVQLVESGGGLVQAGGSLRLSCAASGRTFSVYSMGWYRQAPGKERDLVAGITGNGGSTYYADSVKGSFTISRDNAKNTVYLQMNSLKPEDTAVYYCATAYWVIITRGEYGYCGQGTQVTVSS | low polyreactivity

Row | Sequence | polyreactivity (PSR sort gate)
23 | QVQLVESGGGLVQAGGSLRLSCADSGFTFYRNAMGWYRQAPGKERELVAAITSTGSTNYADSVKGRFTISRDNAKNTVYLQMNSLKPEDTAVYYCIKRRFGRQGMDYWGQGTQVTVSS | low polyreactivity
24 | QVQLVESGGGLVQAGGSLRLSCAASGGTFGRYAMGWYRQAPGKERELVAAITWRVGSTYADSVKGRFTISRDNAKNTVYLQMNSLKPEDTAVYYCAARRRAPGTKYYYWGQGTQVTVSS | low polyreactivity
25 | QVQLVESGGGLVQAGGSLRLSCAASGSTFYLYTMGWYRQAPGKERELVAAINRSGGRTYYADSVKGRFTISRDNAKNTVYLQMNSLKPEDTAVYYCATDSVTRGRSRGFDYWGQGTQVTVSS | high polyreactivity
26 | QVQLVESGGGLVQAGGSLRLSCAASGRIFRTYAMGWYRQAPGKERELVAGITWRGTSTYYADYVKGRFTISRDNAKNTVYLQLNSLKPEDTAVYYCAAEWKGYYVHDYWGQGTQVTVSS | high polyreactivity
27 | QVQLVESGGGLVQAGGSLRLSCAASGSIFSIYAMGWYRQAPGKERELVASITRSSGRTYYADSVKGRFTISRDNAKNTVYLQMNSLKPEDTAVYYCNAVWNTFISGRSYDYWGQGTQVTVSS | low polyreactivity
28 | QVQLVESGGGLVQAGGSLRLSCAASGSTFLYYAMGWYRQAPGKEREFVAAISKGSGRTYYADSVKGRFTISRDNAKNTVYLQLNSLKPEDTAVYYCAAAKWRGYPYQSDYWGQGTQVTVSS | high polyreactivity
29 | QVQLVESGGGLVQAGGSLRLSCAASGFTFAVYTMGRYIQGPGKERELVAAITASGGSTHYADSVKGRFTISRDNAKNTVYIQMNSLKPEDTAVYYCAARPRLYQYYYWGQGTQVTVSS | high polyreactivity
30 | QVQLVESGGGLVQAGGSLRLSCAASGRTFRWNAMGWYRQAPGKERELVARISWRGGSTYYADSVKGRFTISRDNAKNTVYLQMNSLKPEDTAVYYCAATSPYYRTGYDYWGQGTQVTVSS | high polyreactivity
31 | QVQLVESGGGLVQAGGSLRLSFAASGSTFPVYTMGWYRQAPGKERELVAAITGSGGRTYYADSVKGRFTISRDNAKNTVYLQMNSLKPEDTAVYYCNAYPKGRYAAAFPGMDYWGQGTQVTVSS | high polyreactivity
32 | QVQLVESGGGLVQAGGSLRLSCAASGRIFEHNAMGWSRQAPGKEMEFVAAISSSGGSTYYADSVKGRFTISRDNAKNTVYLQMNSLKPEDTAVYYCNAGSTYYERNYWGQGTQVTVSS | low polyreactivity
33 | QVQLVESGGGLVQAGGSLRLSCAASGSTFYKYTMGWYRQAPGKERELVAAISGSGTTTYYADSVKGRFTISRDNAKNTVYLQMNSLNPEDTAVYYCAASLYLYNSRITVRSHYYYWGQGTQVTVSS | high polyreactivity
34 | QVQLVESGGGLVQAGGSLRLSCAASGSIFAVYAMGWYRQAPGKEREFVARISWGGGRTYYADSVKGRCTISRDNAKNPVYLQMNSLKPEDTAVYYCAATFRARPRENYWGQGTQVTVSS | high polyreactivity
35 | QVQLVESGGGLVQAGGSLRLSCAASGRIFSRNAMGWYRQAPGKERELVAAITWRGGSTYYADSVKGRFTISRDNAKNTVYLQMNSLKPEDTAVYYCNRDYRQYGYAYSGRYYWGQGTQVTVSS | high polyreactivity
36 | QVQLVESGGGLVQAGGSLRLICAASGSTLKYYAMGWSRPAPGKERELVARITRSSGSTYYADSVKGRFTISRDNAKNTVYLQMNSMKPEDTAVYYCNKVYKSYYWGGYDWGQGTQVTVSS | high polyreactivity
37 | QVPLVESGRGLVQAGGSLRLSCAASGFIFKYYAMGWYRQAPGKEGELVASISSSGSSTYYADSVKGRFTISRDNAKNTVYLQMNSLKAEDTAVNYCNTVTYGPSAYDYLGQGTQVTVSS | low polyreactivity
38 | QVQHVESVGGLVQAGGSLRLSCAASGFTFYGYAMGWYRHATGKERELVPAISQSGGSTTYADSVKGRFTISRDKAKNTVYVQMNSLKPEDTAVYYCAARYPYYWWRHVYGDVEYDFWGQGTQGTVSS | high polyreactivity
39 | QVQLVESGGGLVQAGGSLRLSCAASGGIFRANTMGWYRQAPGKERELVAVISWSGARTYYADSVKGRFTISRDNAKNTVYLQMNSLKPEDTAVYYCNARVPKLGSMYYWGHGTQVTVSS | high polyreactivity
40 | QVQLVESGGGLVQAGGSLRLSSAASGNIFSDYAMGWNIQAPGKERELVAAISSGGNTNYADSVKGRFTISRDNAKNTVYLQMNSLKPEDTAVYYCAAVYNTTYTLLPEYIYDYWGHGTQVTVSS | low polyreactivity
41 | QVQLVESGGGLVQAGGSLRLSCAASGRTFDYYTMGWYRQAPGKERELVAAISWSGSTTYYADSVKGRFTISRDNAKNTVSLQMNSLKPEDTAVYYCAKSYRFPSVGPPGELDYWGQGTQVTVSS | high polyreactivity
42 | QVQLVESGGGLVQAGGSLRLSCAASGSIFDENAMGWYIQAPGKERELVAAITGSGVRTYYADSVKGRFTISRDNAKTTVYLQMNSLKPEDTAVYYCAAETLGVYDYESYTYYWGQRTQVTVSS | high polyreactivity
43 | QVQLVESGGGLVQAGGSLRLSCAASGITFRNYAMGWYRQAPGKEREFVAAIRWGGGSTYYEDSGKGRFTISLDNAKNTVYLQMNSLKPEDTAVYYCATRGYSRNNPYSRPYDYWGQGTQVTVSS | high polyreactivity
